# Test results: patent US8080523
# Like-named read-outs stand apart in the source and are kept apart here.
# T1: Kv1.1 (Mus musculus (Mouse)), P16388
# T1 chain: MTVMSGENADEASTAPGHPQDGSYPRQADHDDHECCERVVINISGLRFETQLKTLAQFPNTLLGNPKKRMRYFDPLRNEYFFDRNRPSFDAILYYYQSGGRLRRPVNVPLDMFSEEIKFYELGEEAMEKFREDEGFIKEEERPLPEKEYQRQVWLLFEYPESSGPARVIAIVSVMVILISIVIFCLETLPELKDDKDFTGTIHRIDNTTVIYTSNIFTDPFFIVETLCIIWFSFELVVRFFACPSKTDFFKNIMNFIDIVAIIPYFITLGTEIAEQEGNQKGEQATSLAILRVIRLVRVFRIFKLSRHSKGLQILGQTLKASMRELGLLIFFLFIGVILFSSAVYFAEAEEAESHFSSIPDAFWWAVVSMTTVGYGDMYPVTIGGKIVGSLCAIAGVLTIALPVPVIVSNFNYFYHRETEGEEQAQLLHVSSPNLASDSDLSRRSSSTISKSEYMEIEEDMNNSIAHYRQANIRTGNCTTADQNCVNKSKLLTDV
# T2: Kv1.3 (cloned) (Mus musculus (Mouse)), P16390
# T2 chain: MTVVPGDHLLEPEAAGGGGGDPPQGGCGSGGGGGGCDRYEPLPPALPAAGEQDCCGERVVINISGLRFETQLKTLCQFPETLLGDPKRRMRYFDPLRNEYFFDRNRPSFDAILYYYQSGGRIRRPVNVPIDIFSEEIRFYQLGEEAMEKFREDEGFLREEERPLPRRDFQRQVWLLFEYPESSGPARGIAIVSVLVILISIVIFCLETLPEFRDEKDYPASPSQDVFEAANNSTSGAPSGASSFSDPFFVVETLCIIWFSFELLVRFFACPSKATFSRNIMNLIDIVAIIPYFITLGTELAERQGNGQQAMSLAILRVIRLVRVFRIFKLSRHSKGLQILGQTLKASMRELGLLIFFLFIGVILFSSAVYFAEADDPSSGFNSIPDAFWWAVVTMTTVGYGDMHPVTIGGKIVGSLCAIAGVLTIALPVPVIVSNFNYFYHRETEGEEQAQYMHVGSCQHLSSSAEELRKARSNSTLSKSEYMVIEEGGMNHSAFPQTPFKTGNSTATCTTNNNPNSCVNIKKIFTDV
# Columns and labels:
# [1] = target: T1, Kv1.1 (Mus musculus (Mouse)), P16388; experiment: patch-clamp, ratio of Kd values; reference margatoxin on Kv1.3
# [2] = target: T2, Kv1.3 (cloned) (Mus musculus (Mouse)), …; experiment: patch-clamp, block of channel current
# [3] = target: T1, Kv1.1 (Mus musculus (Mouse)), P16388; experiment: patch-clamp, block of channel current
# [4] = target: T2, Kv1.3 (cloned) (Mus musculus (Mouse)), …
Binder,fold selectivity for Kv1.3 over this channel [1] [fold],Kd [2] [nM],Kd [3] [nM],Kd [4] [nM]
"TIINVKCTSPKQCLPPCKAQFGQSAGAKCMNGKCKCYPH (modifications not checked) [Margatoxin, P40755 1-39]",9,0.11,10,
RSCIDTIPKSRCTAFQCKHSMKYRLSFCRKTCGTC (modifications not checked) [ShK toxin],,,,0.01
